Legend:
scNep1 (Emg1) [1] = molecular target: T1, scNep1 (Emg1) (Saccharomyces cerevisiae, UniProt Q06287 1-252); experiment: 1:1 molar mix
scNep1 (Emg1) [2] = molecular target: T1, scNep1 (Emg1); experiment: X-ray crystallography

B1: 14-base Nep1 RNA (structured_RNA)
RNA: GGGCUUCAACGCCC
B1: binds (scNep1 (Emg1) [1]); binds (scNep1 (Emg1) [2]).
